# From the nanobody polyreactivity screen of Harvey et al. (2022)
# Assay: yeast display, Sf9 membrane polyspecificity reagent, FACS + sequencing; frameworks hold sequencing errors
# How it was run: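 A nanobody's polyreactivity label depends on the gate it was sorted from. Yeast display cells were stained with 10% biotinylated, detergent-solubilized Sf9 membrane reagent for 1 hour at 4 °C, enriched on streptavidin microbeads and sorted by FACS. The low and high (top ~1%) gates were set on anti-HA fluorescence for expression and streptavidin fluorescence for reagent binding.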
row,Sequence,polyreactivity (PSR sort gate)
1,QVQLVESGGGLVQAGGSLRVICAASGSIGRYAMGWSRQAPGKERELVAAISSSGGSTYYADSVKGRFTISRDNAKNTVYLQMNSLKPEDTAGYYCAACPGAQEDDYWGPGTQVTVSS,high polyreactivity
2,QVQLVESGGGLVQAGGSLRLSCAASGSIFDVNAMGRYRQAPGKERELVAAISDSGGSTYYADSVKGRFTISRDNAKNTVYLQMNSLKPEDTAVYYCNADWSWYNYYDFDYWGQGTQVTVSS,low polyreactivity
3,QVQLVESGGGLVQAGGSLRLSCAASGSTFSHYAMGWYRQAPGKERELVATITYSGGSTYYADSVKGRFTISRDNAKNTVYLQMNSMKPEDTAVYYCAARPRFITYKRYYWGQGTQVTVSS,high polyreactivity
4,QVQLVESGGGLVQAGGSLRLSCAASGSTLSTYVMGWYRQAPGKERELVAAITRRGGITYYADSVKGRFTISRDNAKNTVYLQMNSLKPEDTAVYYCNRLRYPHTFQTGGYWGQGTQVTVSS,high polyreactivity
5,QVQLVESGGGLVQAGGSLRLSCAASGRIFGRYAKGWYRQAPGKEMELVAAISRSGGSTYYADSVKGRFTISRDNAKNTVYLQMNSLKPEDTAVYDCAAVPGISVGRQPGYDSDYWGQGTQVTVSS,low polyreactivity
6,QVQLVESGGRLVQAGGSLRLSCAASGSTFRYYAMGWYRQAPGKERELVAAITSSGTSTYYADSVKGRFTISRDNAKNTVYLQMNSLKPEDTAVYYCAAPPVYKWVSSRYDYWGQGTQVTVSS,low polyreactivity
7,QVQLVESGGGLVQAGGSLRISCAASGRIFRGNALGWYRQAPGTERELVAAITRSGGSTYYADSVKGRFTISRDNAKNTVYLQMNSLKPEDTAVYYCAAGYPYYSYLYDYWGQGTQVSVSS,high polyreactivity
8,QVQLVESGGGLVQAGGSLRLSCAASGFTFIKYAMGWYRQAPGKEREFVSTISWNGGNTYYADSVKGRFTISRDNAKNTVYLQINSLKPEDTAVYYGAARVKYRTRGGTVVSYDYWGQGTQVTVSS,high polyreactivity
9,QVQLVESGGGLVQAGGSLRLSSAASGSTFISYAMGRYSQAPGQDRELVAAISSGGGRTSYADSVKGRLTISRDHAKNTVYLQMNSLKPEDTAVYYCNKTPHFPRPGFNYWGQGTHVTVSS,low polyreactivity
10,QVQLVESGGGLVQAGGSLRLSCAASGFIFGTNTMGWYRQAPGKERELVAAITSVGSTNYADSVKGRFTISRDNAKNTVYLQMNSLKPEDTAVYYCPATLYYQYGGDYWGQGTQVTVSS,low polyreactivity
11,QVQLVESGGGLVQAGGSLRLSCDASGFTFYYYTMGWYRQAPGKERELVAAITWRGGSTNYADSVKGRFTISRDNAKNTVYVQMNSLKPEDTAVYYCAAVTYWFWPGMDYWGQGTQVTVSS,low polyreactivity
12,QVQLVESGGGLVQAGGSLRLSCAASGRIFGYYAMGWYRQAPGKERELVAAISYIGGRTYYADSVKGRFTISRDNAKNTGYLQMNSLKPEDTAVYYCDADRDGADVDYWGQGTQVTVSS,high polyreactivity
13,QVQLVESGGGLVQAGGSLRLSCAASGSIFEYYAMGWYRQAPGKERELVASITSSGTTYYADSVKGRFTISRDNAKNTVYLQMNSLKPEDTAVYYCAAYFAYLDSYVTYEYDYWGQGTQVTVSS,low polyreactivity
14,QVQLVESGGGLVQAGGSLRLTSADSGRTFYKYAMGWYIQAPGKERELVAANSQSGGSTYYADSVNGRFTISRDNAKNTVYLQMNSLKPEDTAVYYCAARRLPRKERKLYYWGQGSQVTVSS,high polyreactivity
15,QLQLVESGGGLVQAGGSLRLSCAASVRIFDVYAMGWYRQAPGKERELVAAITWDGGSTYYADSVKGRFTISRDNAKNTVYLQMNSLKPEDTAVYYCAAEPVYTQRKGYDYWGHGTQVTVSS,low polyreactivity
16,QVQLVESGGGLVQAGGSLRLSCAASGSIITWYTMGWYRQAPGKERELVAAISWSGGRTYYADSVKGRFTISRDNAKNTVYLQMNSLKPEDTAVYYCAASAYGRPPFDYWGQGTQVTVSS,high polyreactivity
17,QVQLVESGGGLVQAGGSLRLSCAASGNTFTWYTMGWYRQAPGKERELVAVITSDGSTYYADSVKGRFTISRDNAKNTVYLQMNSLKPEDTAVYYCNARYLRLRYPYTDEYNYWGQGTQVTVSS,low polyreactivity
18,QVQLVESGGGLVQAGGSLRLSCAASGSIFSWYAMGWYRQAHGKEREFVAGISSSGSTKYADSVKGRFTISRDNAKNTVYLQMNSLKPEDTAVYYCAVANKSQRYFYYYFHYYYWGQGTQVTVSS,low polyreactivity
19,QVQLVESRGGLVQAARSLRLSFAASGSIFSSNAMGWYRQAPGKERELVAAITSVGSTTYADSVKGRFTISRDNAKNTVYLQMNSLKPEDTAVYYFAADPVYRYYHGWTYVDYVYWGQGTQVTVSS,low polyreactivity
20,QVQLVESWGGLVQAGGSLRLSCAASGSTFRGNAMGWYRQAPGTERELVAAITRRGGSTYYADSVKGRFTISRDNAKNTVYLQMNSLKPEDPAVYYCAKVGRETEYDYWGQGTQVTVSS,high polyreactivity
21,HVQRVESGGGLVQAGASLRLSCAASGGIFSYNAMGWYRQAPGKERELVAAISGTGGSTYYADSVKGRFTISRDNAMNTVYLQMNSLKPEDTAVYYCAADVEYKVFPGDYWGQGPQVTVSS,low polyreactivity
22,QVQLVESGGGLVQAGGSLRLSCAASGFIFYVYAMGWYRQAPGKERELVAAISADGGITYYADSVKGRFTISRDNAKNSVYFQMNSLKPEDTAVYYCNTLGDQDAYAGFRLDYWGQGTQVTVSS,low polyreactivity
23,QVQLVESGGGLVQAGGSLRLSCAASGFIFYRYAMGWYRQAPGKERELVASITKRGGSTRYADSVKGRFTISRDNAKNTVYLQMNSLKPEDTAVYYCAKVPYSTAFDYWGQGTQVTVSS,high polyreactivity
24,QVQLVESGGGLVQAGGSLRLSCAASGRTFRYYAMGWYRQAPGKVRELVAAISWNGANTYYADSVKGRFTISRDNAKNTVYLQMNSLKPEDTAVYYCAATYYRWKGYDYWGQGTQVTVSS,high polyreactivity
25,QVQLVASGGGLVQAGGSLRLTCAASGITSWYYAMGWYRQAPGKERELVAAITSDGSTYYADSVKGRFTISRDNAKNTVYLQMNSLNPEDTAVYYCAAERDYWIPDSYLVVMDYWGQGTQVTVSS,low polyreactivity
26,QVQLVESGGGLVQAGGSLRLSCAASGSIFSYYAMGWYRQAPGKERELVAAISRGGYTYYADSVKGRFTISRDNAKNTVYLQMNSLKPEDTAVYYCAAAPYYVTLVTRRDYWGQGTQVTVSS,high polyreactivity
27,QVQLVESGGGLVQAGCSLRLSCAASGRIYRRYAMGWYRQAPGKERELVAAISSRGGRTYYADSVKGRITISRDNAMNTVYLQMNSLKQEDTAVYYCAARPAGYGHYKYYYWGQGTQVTVSS,high polyreactivity
28,QVQLVESGGGLVQAGGSLRLSCAASGRIIGYYAMGWYRQAPGKERELVATINYSGGRTYYADSVKGRFTISRDNAKNTVYLQMNSLKPEDTAVYYCNARESGRGSHDDYWGHGTQVTVSS,high polyreactivity
29,QVQLVESGGVLVQAGGSLRLSCAASGYIFGNYAMGWYRQAPGNERELVASIDSGGSTNYADSVKGRFTISRDNAKNTVYLQKNSLKPEDTAVYYWAARPTWNRGRSRKYWRYNYWAQGTQVTVSS,high polyreactivity
30,QVQLVESGGGLVQAGGSLRLSCAASGFTFYYNAMGWYRQAPGKERELVAIRFRGGNTYYADSVKGRFTISRDNAKNTVYLQMNSLKPEDTAVYYCNADDRGSTYVEFDYWGQGTQVTVSS,low polyreactivity
